Measured values as given in patent publication US6759384 (AVENTIS PHARMACEUTICALS, dated 2004).
Non-standard residues stand in square brackets, D forms with d. No end group written: not given here. *: point of attachment. Ala(1-Me-3-pyridinium) = C[n+]1cccc(C[C@H](N)C(=O)O)c1; Phe(4-guanidino) = N=C(N)Nc1ccc(C[C@H](N)C(=O)O)cc1; Phe(4-Cl) = N[C@@H](Cc1ccc(Cl)cc1)C(=O)O; Phe(4-NH2) = Nc1ccc(C[C@H](N)C(=O)O)cc1; Phe(4-F) = N[C@@H](Cc1ccc(F)cc1)C(=O)O; 1Nal = N[C@@H](Cc1cccc2ccccc12)C(=O)O; 2Nal = N[C@@H](Cc1ccc2ccccc2c1)C(=O)O; (CH3CH2CH2(CH3))G = N-alkylglycine; dTic = O=C(O)[C@H]1Cc2ccccc2CN1; Gly(N-cHex) = O=C(O)CNC1CCCCC1; Chg = N[C@H](C(=O)O)C1CCCCC1; Nle = CCCC[C@H](N)C(=O)O; Dab = NCC[C@H](N)C(=O)O; Tfa = O=C(C(F)(F)F)*; βAla = NCCC(=O)O; Sar = CNCC(=O)O; For = O=C*

B1: Ac-Y-I-PalMe(3)-L-P-NH2 (peptide)
peptide: Ac-YI[Ala(1-Me-3-pyridinium)]LP-NH2
SMILES: CC[C@H](C)[C@H](NC(=O)[C@H](Cc1ccc(O)cc1)NC(C)=O)C(=O)N[C@@H](Cc1ccc[n+](C)c1)C(=O)N[C@@H](CC(C)C)C(=O)N1CCC[C@H]1C(N)=O
B2: D-Tic-I-R-L-A-A-F-T-NH2 (peptide)
peptide: [dTic]IRLAAFT-NH2
modifications: N-terminus assumed
SMILES: CC[C@H](C)[C@H](NC(=O)[C@H]1Cc2ccccc2CN1)C(=O)N[C@@H](CCCNC(=N)N)C(=O)N[C@@H](CC(C)C)C(=O)N[C@@H](C)C(=O)N[C@@H](C)C(=O)N[C@@H](Cc1ccccc1)C(=O)N[C@H](C(N)=O)[C@@H](C)O
B3: βAla-Y-I-R-G-NH2 (peptide)
peptide: [βAla]YIRG-NH2
modifications: N-terminus assumed
SMILES: CC[C@H](C)[C@H](NC(=O)[C@H](Cc1ccc(O)cc1)NC(=O)CCN)C(=O)N[C@@H](CCCNC(=N)N)C(=O)NCC(N)=O
B4: Ac-G-y-Nle-R-L-NH2 (peptide)
peptide: Ac-G[dY][Nle]RL-NH2
SMILES: CCCC[C@H](NC(=O)[C@@H](Cc1ccc(O)cc1)NC(=O)CNC(C)=O)C(=O)N[C@@H](CCCNC(=N)N)C(=O)N[C@@H](CC(C)C)C(N)=O
B5: F(pF)-I-R-L-P-NH2 (peptide)
peptide: [Phe(4-F)]IRLP-NH2
modifications: N-terminus assumed
SMILES: CC[C@H](C)[C@H](NC(=O)[C@@H](N)Cc1ccc(F)cc1)C(=O)N[C@@H](CCCNC(=N)N)C(=O)N[C@@H](CC(C)C)C(=O)N1CCC[C@H]1C(N)=O
notes: also called Phe(pF)-I-R-L-P-NH
B6: F(pCl)-I-R-I-Sar-NH2 (peptide)
peptide: [Phe(4-Cl)]IRI[Sar]-NH2
modifications: N-terminus assumed
SMILES: CC[C@H](C)[C@H](NC(=O)[C@@H](N)Cc1ccc(Cl)cc1)C(=O)N[C@@H](CCCNC(=N)N)C(=O)N[C@H](C(=O)N(C)CC(N)=O)[C@@H](C)CC
B7: Ac-F(pNH2)-Chg-R-(Chx)G-G-OH (peptide)
peptide: Ac-[Phe(4-NH2)][Chg]R[Gly(N-cHex)]G-OH
SMILES: CC(=O)N[C@@H](Cc1ccc(N)cc1)C(=O)N[C@H](C(=O)N[C@@H](CCCNC(=N)N)C(=O)N(CC(=O)NCC(=O)O)C1CCCCC1)C1CCCCC1
B8: Ac-Phe-(pGua)-I-R-L-P-NH2 (peptide)
peptide: Ac-[Phe(4-guanidino)]IRLP-NH2
SMILES: CC[C@H](C)[C@H](NC(=O)[C@H](Cc1ccc(NC(=N)N)cc1)NC(C)=O)C(=O)N[C@@H](CCCNC(=N)N)C(=O)N[C@@H](CC(C)C)C(=O)N1CCC[C@H]1C(N)=O
B9: Ac-G-Y-Nle-R-L-NH2 (peptide)
peptide: Ac-GY[Nle]RL-NH2
SMILES: CCCC[C@H](NC(=O)[C@H](Cc1ccc(O)cc1)NC(=O)CNC(C)=O)C(=O)N[C@@H](CCCNC(=N)N)C(=O)N[C@@H](CC(C)C)C(N)=O
B10: w-L-R-V-A-NH2 (peptide)
peptide: [dW]LRVA-NH2
modifications: N-terminus assumed
SMILES: CC(C)C[C@H](NC(=O)[C@H](N)Cc1c[nH]c2ccccc12)C(=O)N[C@@H](CCCNC(=N)N)C(=O)N[C@H](C(=O)N[C@@H](C)C(N)=O)C(C)C
B11: C-Y-I-R-L-C-NH2 (peptide)
peptide: CYIRLC-NH2
modifications: also: cyclisation unknown (underlining lost)
notes: may be cyclic (disulfide); underlining lost
B12: Ac-Y-I-R-L-P-Dab(Ac-Y-I-R-L-P)-OH (peptide)
peptide: Ac-YIRLP[Dab]-OH
chain: Ac-YIRLP
modifications: also: branched: chain 2 attached to the Dab6 side-chain N
notes: branched peptide

molecular target: human factor Xa (Enzyme Research Laboratories, Inc.) (human, UniProt P00742 41-179; P00742 235-488, limits assumed); test: chromogenic FXa inhibition
Sequence (P00742 41-179 limits assumed, chain 1 of 2): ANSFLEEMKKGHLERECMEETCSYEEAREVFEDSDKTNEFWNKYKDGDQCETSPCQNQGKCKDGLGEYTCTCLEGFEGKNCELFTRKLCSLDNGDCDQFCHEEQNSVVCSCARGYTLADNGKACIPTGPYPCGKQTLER
Sequence (P00742 235-488 limits assumed, chain 2 of 2): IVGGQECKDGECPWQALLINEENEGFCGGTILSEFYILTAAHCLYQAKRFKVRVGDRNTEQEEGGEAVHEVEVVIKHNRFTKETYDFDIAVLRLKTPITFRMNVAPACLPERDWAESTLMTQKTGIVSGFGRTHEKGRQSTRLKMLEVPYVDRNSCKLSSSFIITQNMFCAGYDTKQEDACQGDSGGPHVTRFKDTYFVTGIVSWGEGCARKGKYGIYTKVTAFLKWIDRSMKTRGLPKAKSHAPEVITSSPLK
Protocol: TBS-P buffer (50 mM Tris-Cl, pH 7.8, 200 mM NaCl, 0.05% (w/v) PEG-8000, 0.02% (w/v) NaN_3) was used for this assay. The IC$50$ was determined by combining in appropriate wells of a Costar half-area microtiter plate 25 μl human factor Xa (Enzyme Research Laboratories, Inc.; South Bend Ind.) in TBS-P; 40 μl 10% (v/v) DMSO in TBS-P (uninhibited control) or various concentrations of a peptide to be tested diluted in 10% (v/v) DMSO in TBS-P; and substrate S-2765 (Nα-benzyloxycarbonyl-D-Arg-Gly-L-Arg-p-nitroanilide; Kabi Pharmacia, Inc.; Franklin Ohio) in TBS-P.
The assays were performed by pre-incubating the peptide inhibitor plus enzyme for 10 min, then the assay was initiated by adding substrate to obtain a final volume of 100 μl. The initial velocity of chromogenic substrate hydrolysis was measured by the change in absorbance at 405 nm using a Bio-tek Instruments kinetic plate reader (Ceres UV900HDi) at 25° C. during the linear portion of the time course (usually 1–5 min after addition of substrate). The concentration of inhibitor that caused a 50% decrease in the rate of substrate hydrolysis was predicted by linear regression after plotting the relative rates of hydrolysis (compared to the uninhibited control) versus the log of the peptide concentration. The enzyme concentration was 0.5 nM and substrate concentration was 140 μM.

Binder | Ki [µM]
FIRLPHYG-NH2 [F-I-R-L-P-H-Y-G-NH2] | < 100
B1 | < 100
B2 | < 100
Cl2CHCO-YIRLP-NH2 [Cl2CHCO-Y-I-R-L-P-NH2] | < 100
Ac-YIRLAAFT-NH2 [Ac-Y-I-R-L-A-A-F-T-NH2] | < 100
{CClF2‑CO}-YIRLP-NH2 [CClF2-CO-Y-I-R-L-P-NH2] | < 100
{CF3‑CF2CO}-YIRLP-NH2 [CF3-CF2CO-Y-I-R-L-P-NH2] | < 100
B3 | < 100
Ac-[Phe(4-NH2)][Chg]R[(CH3CH2CH2(CH3))G]G-OH (name runs over rows r100 and r101) [Ac-F(pNH2)-Chg-R-(CH3CH2CH2(CH3))G-G-OH] | < 100
Ac-YIRL [Ac-Y-I-R-L] | < 100
Tfa-[N(iBu)Y]IRG-NH2 [Tfa-(iBu)Y-I-R-G-NH2] | < 100
Ac-YIRI [Ac-Y-I-R-I] | < 100
FIRL-NH2 (probably F-I-R-L-NH2) [F-I-R-L-N-H2] | < 100
YIRI-NH2 [Y-I-R-I-NH2] | < 100
Ac-YNRL-NH2 [Ac-Y-N-R-L-NH2] | < 100
B4 | < 100
B5 | < 100
[βAla]YIRG (also: cyclisation unknown (underlining lost), may be cyclic; underlining lost) [βAla-Y-I-R-G] | < 100
B6 | < 100
{CH3‑SO2}-YIRLP-NH2 [CH3-SO2-Y-I-R-L-P-NH2] | < 100
B7 | < 100
Ac-SYIRLP-NH2 [Ac-S-Y-I-R-L-P-NH2] | < 100
GYIRLP-NH2 [G-Y-I-R-L-P-NH2] | < 100
Ac-YKRLE-NH2 (also: cyclisation unknown (underlining lost), may be cyclic; underlining lost) [Ac-Y-K-R-L-E-NH2] | < 100

Binder | Ki [µM]
{CF2H‑CO}-YIRLP-NH2 [CF2H-CO-Y-I-R-L-P-NH2] | < 100
Ac-GGYIRG-NH2 [Ac-G-G-Y-I-R-G-NH2] | < 100
Ac-[1Nal]IRLP-NH2 [Ac-Nal(1)-I-R-L-P-NH2] | < 100
B8 | < 100
{CH3CH2‑O‑CO}-YIRLP-NH2 [CH3CH2-O-CO-Y-I-R-L-P-NH2] | < 100
B9 | < 100
XIRLP (N-term Ac; Y1=Y(Me) O-methyl tyrosine; C-term NH2) [Ac-Y(Me)-I-R-L-P-NH2] | < 100
YIRLP (N-term Ac; D-Tyr at 1; C-term NH2) [Ac-y-I-R-L-P-NH2] | < 100
{CH3‑CHCl‑CO}-YIRLP-NH2 [CH3-CHCl-CO-Y-I-R-L-P-NH2] | < 100
For-[dY]IRLP-NH2 [For-y-I-R-L-P-NH2] | < 100
EYIRLPK-NH2 (also: cyclisation unknown (underlining lost), may be cyclic; underlining lost) [E-Y-I-R-L-P-K-NH2] | < 100
Ac-WLRLA-NH2 [Ac-W-L-R-L-A-NH2] | < 100
WLRVA-NH2 [W-L-R-V-A-NH2] | < 100
B10 | < 100
XIRLP (N,N-diethyl (Et(Et)) on Y1; C-term NH2) [Et(Et)Y-I-R-L-P-NH2] | < 100
Ac-[2Nal]IRLP-NH2 [Ac-Nal(2)-I-R-L-P-NH2] | < 100
Ac-YIRLP-NH2 (also: pseudo peptide bond ψ(CH2N(Ac)) between Y1 and I2) [Ac-Y-{ψ(CH2N(Ac))}-I-R-L-P-NH2] | < 100
B11 | < 100
Ac-YIRLP-NH2 (also: reduced pseudo peptide bond ψ(CH2NH) between I2 and R3) [Ac-Y-I-{ψ(CH2NH)}-R-L-P-NH2] | < 100
{CH3O‑CO}-YIRLP-NH2 [CH3O-CO-Y-I-R-L-P-NH2] | < 100
EYIRLK-NH2 (also: cyclisation unknown (underlining lost), may be cyclic; underlining lost) [E-Y-I-R-L-K-NH2] | < 100
FIRLYVWN-NH2 [F-I-R-L-Y-V-W-N-NH2] | < 100
Ac-YIRLP-NH2 (also: reduced pseudo peptide bond ψ(CH2NH) between Y1 and I2) [Ac-Y-{ψ(CH2NH)}-I-R-L-P-NH2] | < 100
B12 | < 100
